Test results reported in patent publication US20030068675, “Position dependent recognition of GNN nucleotide triplets by zinc fingers” (published 2003).

What was measured:
Experiment in all cases: EMSA
Conditions in all cases: tags: MBP fusion
[1] = target: ZFP SBS#1350 (synthetic)
Outline: (§1)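 Purified ZFP was titrated against labeled double-stranded target (1 nM or lower, at least 10-fold below expected Kd) carrying the natural binding site with flanks. Binding buffer was 10 mM Tris pH 7.5, 100 mM KCl, 1 mM MgCl2, 0.1 mM ZnCl2, 5 mM DTT, 10% glycerol, 0.02% BSA, with equilibration for at least 45 min. Bound and free target were separated on a 10% polyacrylamide gel.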

[2] = target: T1, ZFP SBS#1347 (synthetic)
T1 chain: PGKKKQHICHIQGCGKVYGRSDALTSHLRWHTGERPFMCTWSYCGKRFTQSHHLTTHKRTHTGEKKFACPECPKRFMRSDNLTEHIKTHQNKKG
Outline: as §1

[3] = target: ZFP SBS#1330 (synthetic)
Sequence of ZFP SBS#1330 (synthetic) (chain, as listed by the source): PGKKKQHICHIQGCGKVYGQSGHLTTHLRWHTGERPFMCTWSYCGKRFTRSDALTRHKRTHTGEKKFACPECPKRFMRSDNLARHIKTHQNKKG
Outline: as §1

[4] = target: T2, ZFP SBS#1326 (synthetic)
T2 chain: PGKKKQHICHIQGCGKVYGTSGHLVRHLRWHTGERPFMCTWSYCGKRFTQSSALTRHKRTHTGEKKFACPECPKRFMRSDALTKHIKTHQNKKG
Outline: as §1

[5] = target: T3, ZFP SBS#1327 (synthetic)
T3 chain: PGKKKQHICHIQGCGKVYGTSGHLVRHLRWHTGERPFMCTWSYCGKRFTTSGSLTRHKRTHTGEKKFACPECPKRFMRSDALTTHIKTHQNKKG
Outline: as §1

[6] = target: T4, ZFP SBS#1328 (synthetic)
T4 chain: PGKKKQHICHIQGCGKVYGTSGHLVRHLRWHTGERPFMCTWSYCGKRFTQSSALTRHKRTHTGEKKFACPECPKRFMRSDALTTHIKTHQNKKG
Outline: as §1

[7] = target: T5, ZFP SBS#1325 (synthetic)
T5 chain: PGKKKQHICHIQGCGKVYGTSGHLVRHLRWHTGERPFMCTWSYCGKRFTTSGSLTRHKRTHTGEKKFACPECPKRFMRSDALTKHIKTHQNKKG
Outline: as §1

[8] = target: T6, ZFP SBS#1336 (synthetic)
T6 chain: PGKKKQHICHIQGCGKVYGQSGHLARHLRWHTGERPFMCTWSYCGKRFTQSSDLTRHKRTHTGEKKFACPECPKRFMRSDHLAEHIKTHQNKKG
Outline: as §1

[9] = target: ZFP SBS#1337 (synthetic)
Sequence of ZFP SBS#1337 (synthetic) (chain, as listed by the source): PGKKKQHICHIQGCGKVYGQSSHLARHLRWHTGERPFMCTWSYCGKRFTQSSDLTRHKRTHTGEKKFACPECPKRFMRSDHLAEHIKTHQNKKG
Outline: as §1

[10] = target: T7, ZFP SBS#1335 (synthetic)
T7 chain: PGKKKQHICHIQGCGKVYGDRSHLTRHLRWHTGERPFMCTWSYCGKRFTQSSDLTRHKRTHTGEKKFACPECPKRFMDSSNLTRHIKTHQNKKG
Outline: as §1

[11] = target: ZFP SBS#1313 (synthetic, UniProt P08047)
Sequence of ZFP SBS#1313 (P08047 other isoform, or with tags, fused parts or gaps): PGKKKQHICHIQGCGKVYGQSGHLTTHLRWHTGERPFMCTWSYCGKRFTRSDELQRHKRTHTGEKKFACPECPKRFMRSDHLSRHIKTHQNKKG
Outline: as §1

[12] = target: ZFP SBS#1312 (synthetic, UniProt P08047)
Sequence of ZFP SBS#1312 (P08047 other isoform, or with tags, fused parts or gaps): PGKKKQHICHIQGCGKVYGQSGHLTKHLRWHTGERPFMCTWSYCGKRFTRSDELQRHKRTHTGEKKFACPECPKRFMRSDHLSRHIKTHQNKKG
Outline: as §1

[13] = target: T8, ZFP SBS#1303 (synthetic)
T8 chain: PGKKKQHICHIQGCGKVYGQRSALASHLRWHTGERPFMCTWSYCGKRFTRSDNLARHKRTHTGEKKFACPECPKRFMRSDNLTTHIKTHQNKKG
Outline: as §1

[14] = target: T9, ZFP SBS#1310 (synthetic, UniProt P08047)
T9 chain: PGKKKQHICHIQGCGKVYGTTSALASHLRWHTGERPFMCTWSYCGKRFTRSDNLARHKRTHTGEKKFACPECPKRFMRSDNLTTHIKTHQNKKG
Outline: as §1

[15] = target: T10, ZFP SBS#1309 (synthetic)
T10 chain: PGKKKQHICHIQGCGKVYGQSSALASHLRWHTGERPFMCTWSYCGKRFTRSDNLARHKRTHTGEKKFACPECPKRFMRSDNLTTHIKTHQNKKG
Outline: as §1

[16] = target: T11, ZFP SBS#1343 (synthetic)
T11 chain: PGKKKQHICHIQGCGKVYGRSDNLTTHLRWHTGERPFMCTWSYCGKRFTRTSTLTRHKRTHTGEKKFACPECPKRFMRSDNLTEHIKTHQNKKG
Outline: as §1

[17] = target: T12, ZFP SBS#1342 (synthetic)
T12 chain: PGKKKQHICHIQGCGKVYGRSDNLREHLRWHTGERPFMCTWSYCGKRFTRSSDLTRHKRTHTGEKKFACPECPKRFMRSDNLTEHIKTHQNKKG
Outline: as §1

[18] = target: T13, ZFP SBS#1319 (synthetic)
T13 chain: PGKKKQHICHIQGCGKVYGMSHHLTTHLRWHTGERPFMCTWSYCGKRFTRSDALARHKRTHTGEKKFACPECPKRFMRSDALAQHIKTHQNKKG
Outline: as §1

[19] = target: T14, ZFP SBS#1318 (synthetic, UniProt P08047)
T14 chain: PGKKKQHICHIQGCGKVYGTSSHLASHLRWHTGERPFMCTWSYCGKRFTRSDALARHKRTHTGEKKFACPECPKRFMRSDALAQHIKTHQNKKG
Outline: as §1

[20] = target: ZFP SBS#1323 (synthetic)
Outline: as §1

[21] = target: ZFP SBS#1322 (synthetic)
Sequence of ZFP SBS#1322 (synthetic) (chain, as listed by the source): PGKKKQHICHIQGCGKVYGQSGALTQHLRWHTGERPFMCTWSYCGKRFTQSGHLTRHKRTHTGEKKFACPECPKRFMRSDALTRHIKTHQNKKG
Outline: as §1

[22] = target: ZFP SBS#1324 (synthetic)
Sequence of ZFP SBS#1324 (synthetic) (chain, as listed by the source): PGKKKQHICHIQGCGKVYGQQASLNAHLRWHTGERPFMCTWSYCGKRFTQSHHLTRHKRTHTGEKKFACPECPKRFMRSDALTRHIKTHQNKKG
Outline: as §1

[23] = target: T15, ZFP SBS#1344 (synthetic)
T15 chain: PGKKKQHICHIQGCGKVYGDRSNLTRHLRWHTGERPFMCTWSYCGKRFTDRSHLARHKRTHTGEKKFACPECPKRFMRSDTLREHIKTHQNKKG
Outline: as §1

[24] = target: T16, ZFP SBS#1339 (synthetic)
T16 chain: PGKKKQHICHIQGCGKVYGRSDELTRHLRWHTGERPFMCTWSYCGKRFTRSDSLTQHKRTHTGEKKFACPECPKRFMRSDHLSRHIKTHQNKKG
Outline: as §1

[25] = target: T17, ZFP SBS#1341 (synthetic)
T17 chain: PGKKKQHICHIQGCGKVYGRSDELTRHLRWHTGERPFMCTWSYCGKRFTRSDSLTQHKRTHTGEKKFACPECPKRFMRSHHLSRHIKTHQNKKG
Outline: as §1

[26] = target: T18, ZFP SBS#1340 (synthetic)
T18 chain: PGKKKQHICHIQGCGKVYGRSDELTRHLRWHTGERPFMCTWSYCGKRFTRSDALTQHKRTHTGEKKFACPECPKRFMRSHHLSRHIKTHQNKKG
Outline: as §1

[27] = target: T19, ZFP SBS#1338 (synthetic)
T19 chain: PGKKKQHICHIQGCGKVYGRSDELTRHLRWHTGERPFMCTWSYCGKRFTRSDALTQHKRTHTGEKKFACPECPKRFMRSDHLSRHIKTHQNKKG
Outline: as §1

[28] = target: T20, ZFP SBS#1308 (synthetic)
T20 chain: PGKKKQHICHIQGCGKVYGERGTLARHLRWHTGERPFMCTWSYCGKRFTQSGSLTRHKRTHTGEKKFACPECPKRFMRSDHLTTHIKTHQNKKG
Outline: as §1

[29] = target: ZFP SBS#1311 (synthetic)
Sequence of ZFP SBS#1311 (synthetic) (chain, as listed by the source): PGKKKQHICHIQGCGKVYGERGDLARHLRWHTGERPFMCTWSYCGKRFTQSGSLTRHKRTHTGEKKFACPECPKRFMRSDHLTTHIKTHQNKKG
Outline: as §1

[30] = target: ZFP SBS#1346 (synthetic)
Outline: as §1

[31] = target: T21, ZFP SBS#1320 (synthetic)
T21 chain: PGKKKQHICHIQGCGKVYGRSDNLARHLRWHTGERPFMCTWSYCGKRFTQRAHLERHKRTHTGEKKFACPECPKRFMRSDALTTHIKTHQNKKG
Outline: as §1

[32] = target: T22, ZFP SBS#1321 (synthetic)
T22 chain: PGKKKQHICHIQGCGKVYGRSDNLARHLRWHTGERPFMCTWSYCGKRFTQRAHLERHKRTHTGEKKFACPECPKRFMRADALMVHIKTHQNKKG
Outline: as §1

[33] = target: T23, ZFP SBS#1334 (synthetic)
T23 chain: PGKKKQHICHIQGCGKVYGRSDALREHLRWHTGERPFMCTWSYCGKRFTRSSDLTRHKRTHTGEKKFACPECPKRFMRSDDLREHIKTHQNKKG
Outline: as §1

[34] = target: ZFP SBS#1314 (synthetic)
Outline: as §1

[35] = target: ZFP SBS#1315 (synthetic)
Sequence of ZFP SBS#1315 (synthetic) (chain, as listed by the source): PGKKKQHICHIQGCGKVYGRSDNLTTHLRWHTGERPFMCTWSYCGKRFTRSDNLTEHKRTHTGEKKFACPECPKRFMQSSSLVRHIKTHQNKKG
Outline: as §1

Sequence of ZFP SBS#1350 (synthetic) (chain, as listed by the source): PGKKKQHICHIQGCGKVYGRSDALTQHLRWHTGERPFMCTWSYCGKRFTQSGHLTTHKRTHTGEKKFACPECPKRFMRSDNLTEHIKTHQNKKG

B1: CAGTGAATG (dsDNA)
DNA 1: CAGTGAATG
DNA 2: CATTCACTG
Question: Which Kd [1] does the source give for B1 here?
Answer: Its Kd is 74.1 nM.

Question: And the Kd [2]?
Answer: Its Kd is 8.23 nM.

B2: GAGGTGTGA (dsDNA)
DNA 1: GAGGTGTGA
DNA 2: TCACACCTC
Question: Which Kd [3] does the source give for B2 here?
Answer: Its Kd is 0.175 nM.

B3: TTGGTTGGT (dsDNA)
DNA 1: TTGGTTGGT
DNA 2: ACCAACCAA
Question: B3 was tested. Which Kd [4] did it give?
Answer: Its Kd is 4.38 nM.

Question: What about the Kd [5] of the same binder?
Answer: Its Kd is 0.566 nM.

Question: What about the Kd [6] of the same binder?
Answer: The Kd was 7.95 nM.

Question: What about the Kd [7] of the same binder?
Answer: Its Kd is 0.306 nM.

B4: CGGGCTGGA (dsDNA)
DNA 1: CGGGCTGGA
DNA 2: TCCAGCCCG
Question: For B4, which Kd [8] is on record?
Answer: Its Kd is 1.4 nM.

Question: What about the Kd [9] of the same binder?
Answer: The Kd was 0.235 nM.

B5: GACGCTGGC (dsDNA)
DNA 1: GACGCTGGC
DNA 2: GCCAGCGTC
Question: With B5 as the binder, how does the Kd [10] read?
Answer: The Kd was 1.4 nM.

B6: GGGGCGTGA (dsDNA)
DNA 1: GGGGCGTGA
DNA 2: TCACGCCCC
Question: What does the source list for B6?
Answer: Kd [11]: 0.09 nM; Kd [12]: 0.23 nM

B7: TAGGAGTTT (dsDNA)
DNA 1: TAGGAGTTT
DNA 2: AAACTCCTA
Question: Which results are given for B7?
Answer: Kd [13]: 0.088 nM; Kd [14]: 0.075 nM; Kd [15]: 0.184 nM

B8: CAGGCGCAG (dsDNA)
DNA 1: CAGGCGCAG
DNA 2: CTGCGCCTG
Question: B8 was tested. Which Kd [16] did it give?
Answer: Its Kd is 37 nM.

Question: What about the Kd [17] of the same binder?
Answer: The Kd was 0.68 nM.

B9: ATGGTGTGT (dsDNA)
DNA 1: ATGGTGTGT
DNA 2: ACACACCAT
Question: For B9, which Kd [18] is on record?
Answer: Its Kd is 0.228 nM.

Question: And the Kd [19]?
Answer: Its Kd is 0.048 nM.

B10: GTGGGAATA (dsDNA)
DNA 1: GTGGGAATA
DNA 2: TATTCCCAC
Question: Which Kd [20] does the source give for B10 here?
Answer: The Kd was 0.744 nM.

Question: What about the Kd [21] of the same binder?
Answer: Its Kd is 0.799 nM.

Question: And the Kd [22]?
Answer: Its Kd is 18.5 nM.

B11: CCGGGCGAC (dsDNA)
DNA 1: CCGGGCGAC
DNA 2: GTCGCCCGG
Question: B11 was tested. Which Kd [23] did it give?
Answer: The Kd was 2.28 nM.

B12: GGGATGGCG (dsDNA)
DNA 1: GGGATGGCG
DNA 2: CGCCATCCC
Question: How did the Kd [24] turn out when B12 was run?
Answer: Its Kd is 0.569 nM.

Question: And the Kd [25]?
Answer: Its Kd is 4.1 nM.

Question: And the Kd [26]?
Answer: The Kd was 0.751 nM.

Question: And the Kd [27]?
Answer: Its Kd is 1.04 nM.

B13: TGGGCAGCC (dsDNA)
DNA 1: TGGGCAGCC
DNA 2: GGCTGCCCA
Question: What does the source list for B13?
Answer: Kd [28]: 0.305 nM; Kd [29]: 0.91 nM

B14: GATGTGTGA (dsDNA)
DNA 1: GATGTGTGA
DNA 2: TCACACATC
Question: B14 was tested. Which Kd [30] did it give?
Answer: Its Kd is 0.153 nM.

B15: TTGGGAGAG (dsDNA)
DNA 1: TTGGGAGAG
DNA 2: CTCTCCCAA
Question: Which Kd [31] does the source give for B15 here?
Answer: The Kd was 0.044 nM.

Question: And the Kd [32]?
Answer: Its Kd is 0.127 nM.

B16: CCGGCGCTG (dsDNA)
DNA 1: CCGGCGCTG
DNA 2: CAGCGCCGG
Question: For B16, which Kd [33] is on record?
Answer: The Kd was 0.31 nM.

B17: GTACAGTAG (dsDNA)
DNA 1: GTACAGTAG
DNA 2: CTACTGTAC
Question: Which Kd [34] does the source give for B17 here?
Answer: The Kd was 3.09 nM.

Question: What about the Kd [35] of the same binder?
Answer: Its Kd is 9.27 nM.
